Results reported in patent publication US20190314417A1, “IMMUNOSUPPRESSIVE MESENCHYMAL CELLS AND METHODS FOR FORMING SAME” (The Trustees of Columbia University In The City of New York, priority 2016, published 2019).
Structures can show the parent of a compound that is named as a salt.

Legend:
Format in all cases: cell-based, human
GLUT1 = assay: Hypoxia mimetic titration: GLUT1 in MSCs; settings: different concentrations, FIG. 24
Method: Studies were carried out to determine the effect of hypoxia mimicking agents CoCl2 and DFO on MSCs (FIG. 24).

[1] = test system: CD4+ and CD8+ T-cell division; assay: Lactic acid titration: T-cell division in response to Concanavalin A; settings: ConA 5 μg/mL, Day 3
Method: PBMCs were thawed, as previously described, and stained in HEPES buffered saline at 37° C. for 30 minutes with pHrodo® Red AM (Thermo Fisher) as per manufacturer's instructions (1000× dilution of dye). […] Cells were resuspended in these new media and incubated at 37° C. for 30 minutes. Immediately prior to each flow cytometry reading, each sample was diluted 1:9 with BD Stain Buffer and mixed well. This neutralized external pH and diluted media components without permitting time for intracellular lactate to be exported. […] Cells were plated in 96-well U-bottom plates at 200 000 cells per well. ConA was added to be 5 μg/mL, and PBMCs were analyzed by flow cytometry on Day 3.

T-cells = assay: Lactic acid titration: intracellular pH and scatter of T-cells (pHrodo Red AM); settings: fresh complete AIM-V media, 30 minutes
PD-L1 = assay: Onset kinetics of PD-L1 expression in MSCs exposed to IFN-γ; settings: 10 ng/mL IFN-γ
Method: (§1) Titration studies were carried out to determine whether IFN-γ at different concentrations or for different time periods had differential effects on MSC expression of IDO and/or PD-L1 (FIGS. 22 & 23). […] Thus, the IFN-γ dose could be used in a range of 0.1 ng/mL to 100 ng/mL for future animal and human studies, while still reproducing the same beneficial phenotype, with the lower end of that range more likely to mimic physiologic conditions in humans. […] Therefore, priming of MSCs may be carried out for less than 48 hours to achieve biological effects.

IDO [2] = assay: IFN-γ titration: IDO expression in MSCs by flow cytometry; settings: 48 hours of exposure
Method: as §1

IDO [3] = assay: Onset kinetics of IDO expression in MSCs exposed to IFN-γ; settings: 10 ng/mL IFN-γ
Method: as §1

Molecule: CC(=O)N(O)CCCCCNC(=O)CCC(=O)N(O)CCCCCNC(=O)CCC(=O)N(O)CCCCCN [DFO, deferoxamine mesylate/desferrioxamine]
- GLUT1 upregulation in MSCs (GLUT1): able to upregulate GLUT 1

Molecule: [Cl][Co][Cl] [CoCl2, cobalt chloride]
- GLUT1 upregulation in MSCs (GLUT1): able to upregulate GLUT 1

Molecule: C[C@H](O)C(=O)O [lactic acid, L-lactic acid]
- T-cell division at lactate 15 mM ([1]; lactate concentration of 15 mM): almost completely eliminated
- T-cell division, % of the maximum rate ([1]; lactic acid concentration not given): 30-45%
- extracellular lactic acid level at which drop in T-cell pHi started to become pronounced (T-cells): 15 mM

B1: IFN-γ: pro-inflammatory cytokine (Peprotech) used to prime MSCs (protein, UniProt P01579 24-161, looked up)
Interferon gamma: QDPYVKEAENLKKYFNAGHSDVADNGTLFLGILKNWKEESDRKIMQSQIVSFYFKLFKNFKDDQSIQKSVETIKEDMNVKFFNSNKKKRDDFEKLTNYSVTDLNVQRKAIHELIQVMAELSPAAKTGKRKRSQMLFRG
- exposure time after which PD-L1 is already upregulated (PD-L1): 6 h
- exposure time required for maximum PD-L1 expression (PD-L1): 48 h
- IDO induction at 0.1 ng/mL (IDO [2]; 0.1 ng/mL): significant induction
- IFN-γ concentration required for maximum IDO induction (IDO [2]): at least 1 ng/mL
- exposure time after which IDO is already upregulated (IDO [3]): 6 h
- exposure time required for maximum IDO expression (IDO [3]): 48 h
